Experiments:
[1] = biological target: STM3605f, full-length Se-labeled non-methylated variant (Salmonella enterica serovar Typhimurium LT2); experiment: crystal structure
[2] = biological target: STM3605t (STM3605 residues 5-107, SeMet-labeled and reductively methylated) (Salmonella enterica serovar Typhimurium LT2); experiment: crystal structure

Substance: STM3605f, full-length Se-labeled non-methylated variant (natural protein)
- stoichiometry N [1]: 2

Substance: STM3605t (STM3605 residues 5-107, SeMet-labeled and reductively methylated) (domain or fragment)
- stoichiometry N [2]: 2
